Measurements published in patent US20040005630A1 (published 2004).
Substitutions are numbered along the chain they refer to. Values belong to the molecule of their own block, whether it stands above or below them.

What was measured:
[1] = target: T1, rat CD5 antigen (rat equivalent of CD5) present on rat T cells (rat) (UniProt P51882); assay: flow cytometry of rat lymph node cells 3 h after 0.5 mg/kg i.v., PE anti-mouse IgG1 detection
T1 sequence (looked up): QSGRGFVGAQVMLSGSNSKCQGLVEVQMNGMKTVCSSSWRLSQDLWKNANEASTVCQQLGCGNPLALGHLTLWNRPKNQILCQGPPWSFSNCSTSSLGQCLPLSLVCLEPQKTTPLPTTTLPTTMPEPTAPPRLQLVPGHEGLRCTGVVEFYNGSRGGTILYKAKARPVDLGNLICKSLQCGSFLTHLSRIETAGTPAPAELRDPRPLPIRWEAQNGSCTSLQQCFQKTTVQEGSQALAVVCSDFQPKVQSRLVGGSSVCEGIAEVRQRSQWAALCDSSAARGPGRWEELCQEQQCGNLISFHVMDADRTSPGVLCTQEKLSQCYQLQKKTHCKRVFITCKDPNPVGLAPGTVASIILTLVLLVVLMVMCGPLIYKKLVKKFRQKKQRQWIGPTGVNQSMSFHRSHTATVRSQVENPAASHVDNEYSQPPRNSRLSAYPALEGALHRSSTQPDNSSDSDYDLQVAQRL

[2] = target: T1, rat CD5 antigen (rat equivalent of CD5) present on rat T cells (rat); assay: flow cytometry of rat spleen cells 3 h after 0.5 mg/kg i.v., PE anti-mouse IgG1 detection
[3] = target: T1, rat CD5 antigen (rat equivalent of CD5) present on rat T cells (rat); assay: flow cytometry of rat blood cells 3 h after 0.5 mg/kg i.v., PE anti-mouse IgG1 detection
[4] = target: T1, rat CD5 antigen (rat equivalent of CD5) present on rat T cells (rat); assay: flow cytometry of rat spleen cells 3 h after 0.5 mg/kg i.v., PE anti-mouse IgG1 detection (isotype matched negative control)
[5] = target: T1, rat CD5 antigen (rat equivalent of CD5) present on rat T cells (rat); assay: flow cytometry of rat blood cells 3 h after 0.5 mg/kg i.v., PE anti-mouse IgG1 detection (isotype matched negative control)
[6] = target: T1, rat CD5 antigen (rat equivalent of CD5) present on rat T cells (rat); assay: flow cytometry of rat lymph node cells 3 h after 0.5 mg/kg i.v., PE anti-mouse IgG1 detection (isotype matched negative control)
[7] = target: T2, human CD5 antigen (human, UniProt P06127 25-495); assay: competitive binding on Molt4-M cells, single point at 0.54 nM, competitor 125I-cH65 IgG
T2 construct: whole, on cells; also called gp67; CD5 found on Molt-4M
T2 sequence (looked up): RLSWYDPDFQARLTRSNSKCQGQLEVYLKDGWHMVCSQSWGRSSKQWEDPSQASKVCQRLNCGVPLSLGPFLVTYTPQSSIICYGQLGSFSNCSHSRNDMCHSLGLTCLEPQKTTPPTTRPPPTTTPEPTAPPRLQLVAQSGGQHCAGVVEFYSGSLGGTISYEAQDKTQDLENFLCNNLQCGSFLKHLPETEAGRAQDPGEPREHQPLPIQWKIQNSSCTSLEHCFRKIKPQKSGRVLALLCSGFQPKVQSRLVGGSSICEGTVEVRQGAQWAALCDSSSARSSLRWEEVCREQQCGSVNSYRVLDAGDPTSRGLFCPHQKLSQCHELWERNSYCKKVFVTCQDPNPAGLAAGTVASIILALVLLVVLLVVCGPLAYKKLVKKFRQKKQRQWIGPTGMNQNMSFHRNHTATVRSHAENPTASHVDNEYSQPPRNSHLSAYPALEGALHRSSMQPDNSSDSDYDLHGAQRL
Experimental: Molt4-M cells, which express CD5 on their surface, were plated into 96 well V-bottom plates at a density of 3×10⁵ cells per well and pelleted by centrifugation. The medium was decanted, and 100 μl of purified cH65 IgG at final concentrations from 200 nM to 0.0017 nM (diluted in 3-fold steps) in “BHD” [DMEM (Dulbecco's Modified Eagle's Medium)+1% BSA+10 mM Hepes, pH 7.2] (BHD) was added to each well, followed by 100 μl of ¹²⁵I-cH65 IgG (final concentration=0.1 nM) in BHD. For single point determinations, 50-100 μl of the Centricon® concentrates were added to the wells as follows: hH65 (final concentration=0.54 nM), cH65 (final concentration=0.22 nM), CM+purified cH65 IgG (final concentration=30 nM) and CM alone. These were followed by addition of ¹²⁵I-cH65 IgG (final concentration=0.1 nM). Binding was allowed to proceed for 5 hours at 4° C. At the end of 5 hours, binding was terminated by three washes with ice cold BHD using centrifugation to pellet cells. Radioactivity was determined by solubilizing bound ¹²⁵I-cH65 IgG with 1N NaOH and counting in a Beckman Gamma 8000 (Beckman Instruments, Fullerton, Calif.).

% of CD4 cells that are also positive for mouse IgG1 [1]: 96.2%
% of CD8 cells that are also positive for mouse IgG1 [1]: 96.8%
% of CD4 cells that are also positive for mouse IgG1 [2]: 84.8%
% of CD8 cells that are also positive for mouse IgG1 [2]: 73.6%
% of CD4 cells that are also positive for mouse IgG1 [3]: 96.2%
% of CD8 cells that are also positive for mouse IgG1 [3]: 70.2%
Molecule: OX19 MoAb (antibody)

% of CD4 cells that are also positive for mouse IgG1 [4]: 14.8%
% of CD8 cells that are also positive for mouse IgG1 [4]: 20.6%
% of CD4 cells that are also positive for mouse IgG1 [5]: 6.7%
% of CD8 cells that are also positive for mouse IgG1 [5]: 5.7%
% of CD4 cells that are also positive for mouse IgG1 [6]: 4.2%
% of CD8 cells that are also positive for mouse IgG1 [6]: 6.5%
B1: MoAb H65 (murine monoclonal antibody produced by cell line XMMLY-H65) (antibody, V domains shown)
VH: QIQLVQSGPELKKPGETVKISCKASGYTFTNYGMNWVKQAPGKGLRWMGWINTHTGEPTYADDFKGRFAFSLETSASTAYLQINNLKNEDTATYFCTRRGYDWYFDVWGAGTTVTVSS
VL: DIKMTQSPSSMYASLGERVTITCKASQDINSYLSWFQQKPGKSPKTLIYRANRLVDGVPSRFSGSGSGQDYSLTISSLDYEDMGIYYCQQYDESPWTFGGGTKLEIK

binding result [7]: binds
B2: humanized H65 IgG (low-risk modified H65) (antibody, V domains shown)
VH: QIQLVQSGPGLKKPGGSVRISCAASGYTFTNYGMNWVKQAPGKGLRWMGWINTHTGEPTYADDFKGRFTFSLDTSKSTAYLQINSLRAEDTATYFCTRRGYDWYFDVWGQGTTVTVSS
VL: B1 VL with K3Q, Y12S, E17D, K24R, Q69T, S72T, D79Q, M83F
notes: Whole IgG transiently expressed in CHO-K1 from vectors pING4612 (heavy) and pING4614 (light); Human constant regions; also called hH65; H65 antibody modified according to the methods of the present invention
